The chains are these.
B1: ZNF232 (parent)
chain: GKAYGWCSELIRHRRVHARKEPSH
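Further: lentivirally expressed fusions sorted by FACS into six bins by GFP to DsRed ratio, PSI derived from sequencing read proportions per bin multiplied by bin number.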

Variants of B1 are the subject of this series. Put plainly: protein stability index of a GFP-peptide fusion (GPS, HEK-293T) (PSI 1-6); higher = more stable. The following applies: c terminus: a fixed tail appended.
As for GKAYGGCSELIRHRRVHARKEPSH, the protein stability index is 3.96.
On to GKAYGYCSELIRHRRVHARKEPSH, for which the protein stability index was 2.95.
The figure for GKAYGHCSELIRHRRVHARKEPSH is 3.67.
In the case of GKAYGACSELIRHRRVHARKEPSH, the protein stability index is 3.49.
As for GKAYGICSELIRHRRVHARKEPSH, the protein stability index is 3.27.
The figure for GKAYGDCSELIRHRRVHARKEPSH is 4.05; for GKAYGNCSELIRHRRVHARKEPSH it is 3.98.
The figure for GKAYGMCSELIRHRRVHARKEPSH is 3.82; for GKALGWCSELIRHRRVHARKEPSH it is 2.76.
For the variant GKAWGWCSELIRHRRVHARKEPSH, the protein stability index came out at 2.62.
With GKAVGWCSELIRHRRVHARKEPSH, the protein stability index stood at 3.04.
With GKANGWCSELIRHRRVHARKEPSH the figure was 3.83.
With GKATGWCSELIRHRRVHARKEPSH the figure was 3.19; with GKAPGWCSELIRHRRVHARKEPSH, 4.12; with GKAMGWCSELIRHRRVHARKEPSH, 3.07.
With GKASGWCSELIRHRRVHARKEPSH the figure was 4.18; with GKARGWCSELIRHRRVHARKEPSH, 3.6; with GKAQGWCSELIRHRRVHARKEPSH, 3.75.
For the variant GKAYGWCSELIRNRRVHARKEPSH, the protein stability index stood at 2.69.
As for GKAYGWCSELIRCRRVHARKEPSH, the protein stability index turned out to be 2.39.
With GKAYGWCSELIRSRRVHARKEPSH, the protein stability index worked out at 2.57.
On to GKAYGWCSELIRARRVHARKEPSH, for which the protein stability index was 2.62.
GKAYGWCSELIRTRRVHARKEPSH: the protein stability index worked out at 3.16.
With GKAYGWCSELIRRRRVHARKEPSH the figure was 3.53; with GKAYGWCSELIRGRRVHARKEPSH, 3.46.
With GKAYGWCSELIRERRVHARKEPSH the figure was 3.42.
Take GKAYGWCSELIRWRRVHARKEPSH: the protein stability index was 3.04.
The figure for GKAYGWCSELIRKRRVHARKEPSH is 3.29; for GKAYGWCSELIRDRRVHARKEPSH it is 2.99.
With GKAYGWCSELIRFRRVHARKEPSH the figure was 1.94.
Take GKAYGWCSELIRMRRVHARKEPSH: the protein stability index was determined as 2.36.
Regarding GKAYGWCSELIRIRRVHARKEPSH, the protein stability index worked out at 1.89.
As for GKAYGWCSELIRQRRVHARKEPSH, the protein stability index was 3.22.
For the variant GKAYGWCSELIRPRRVHARKEPSH, the protein stability index is 2.75.
Regarding GKAYGWCSELIRVRRVHARKEPSH, the protein stability index was determined as 2.1.
Regarding GKAYGWCSELIRYRRVHARKEPSH, the protein stability index turned out to be 2.24.
The figure for GKAYGWCSELIRLRRVHARKEPSH is 1.97.
On to GKAYDWCSELIRHRRVHARKEPSH, for which the protein stability index was determined as 2.92.
As for GKAYHWCSELIRHRRVHARKEPSH, the protein stability index was 3.04.
Regarding GKAYSWCSELIRHRRVHARKEPSH, the protein stability index is 2.99.
As for GKAYWWCSELIRHRRVHARKEPSH, the protein stability index came out at 2.14.
Take GKAYTWCSELIRHRRVHARKEPSH: the protein stability index was found to be 2.79.
The figure for GKAYAWCSELIRHRRVHARKEPSH is 3.55; for GKAYEWCSELIRHRRVHARKEPSH it is 2.89.
Turning to GKAYIWCSELIRHRRVHARKEPSH, the protein stability index is 2.29.
In the case of GKAYCWCSELIRHRRVHARKEPSH, the protein stability index came to 1.59.
GKAYLWCSELIRHRRVHARKEPSH: the protein stability index stood at 1.72.
With GKAYRWCSELIRHRRVHARKEPSH the figure was 2.9.
The figure for GKAYKWCSELIRHRRVHARKEPSH is 2.95.
The figure for GKAYVWCSELIRHRRVHARKEPSH is 2.22; for GKAYPWCSELIRHRRVHARKEPSH it is 3.25.
For GKAYNWCSELIRHRRVHARKEPSH, the protein stability index turned out to be 3.56.
Take GKAYQWCSELIRHRRVHARKEPSH: the protein stability index was 3.09.
GKAYMWCSELIRHRRVHARKEPSH: the protein stability index stood at 2.94.
As to GKAYFWCSELIRHRRVHARKEPSH, the protein stability index turned out to be 2.5.
With GKAYYWCSELIRHRRVHARKEPSH the figure was 2.13.
With GKAYGWCSELYRHRRVHARKEPSH, the protein stability index turned out to be 2.9.
As to GKAYGWCSELWRHRRVHARKEPSH, the protein stability index is 2.79.
Regarding GKAYGWCSELARHRRVHARKEPSH, the protein stability index came to 3.41.
The figure for GKAYGWCSELQRHRRVHARKEPSH is 4.02; for GKAYGWCSELGRHRRVHARKEPSH it is 3.35; for GKAYGWCSELCRHRRVHARKEPSH it is 3.37.
For the variant GKAYGWCSELKRHRRVHARKEPSH, the protein stability index was 3.16.
As for GKAYGWCSELTRHRRVHARKEPSH, the protein stability index came out at 3.34.
The figure for GKAYGWCSELHRHRRVHARKEPSH is 3.31; for GKAYGWCSELDRHRRVHARKEPSH it is 3.9; for GKAYGWCSELFRHRRVHARKEPSH it is 2.79.
With GKAYGWCSELNRHRRVHARKEPSH the figure was 3.02; with GKAYGWCSELVRHRRVHARKEPSH, 2.92; with GKAYGWCSELPRHRRVHARKEPSH, 3.11.
With GKAYGWCSELMRHRRVHARKEPSH the figure was 3.18.
GKAYGWCSELLRHRRVHARKEPSH: the protein stability index was determined as 2.61.
With GKAYGWCSELERHRRVHARKEPSH the figure was 3.43; with GKAYGWCSELSRHRRVHARKEPSH, 3.8; with GKAYGWCSELRRHRRVHARKEPSH, 3.67.
With GKAYGWCAELIRHRRVHARKEPSH the figure was 2.67; with GKAYGWCNELIRHRRVHARKEPSH, 3.21; with GKAYGWCWELIRHRRVHARKEPSH, 1.97.
The figure for GKAYGWCMELIRHRRVHARKEPSH is 1.94.
As for GKAYGWCHELIRHRRVHARKEPSH, the protein stability index was found to be 2.69.
As for GKAYGWCGELIRHRRVHARKEPSH, the protein stability index was found to be 2.5.
The figure for GKAYGWCLELIRHRRVHARKEPSH is 2.45; for GKAYGWCCELIRHRRVHARKEPSH it is 2.14; for GKAYGWCVELIRHRRVHARKEPSH it is 2.02.
With GKAYGWCYELIRHRRVHARKEPSH the figure was 2.34; with GKAYGWCFELIRHRRVHARKEPSH, 1.97; with GKAYGWCIELIRHRRVHARKEPSH, 1.57.
With GKAYGWCKELIRHRRVHARKEPSH the figure was 2.6; with GKAYGWCEELIRHRRVHARKEPSH, 3.2.
With GKAYGWCRELIRHRRVHARKEPSH, the protein stability index came out at 2.99.
For GKAYGWCDELIRHRRVHARKEPSH, the protein stability index worked out at 3.22.
As for GKAYGWCQELIRHRRVHARKEPSH, the protein stability index stood at 3.36.
The figure for GKAYGWCPELIRHRRVHARKEPSH is 3.21; for GKAYGWCTELIRHRRVHARKEPSH it is 3.25.

The values are drawn from the supplement of paper PMC10567573.
